The values below come from patent US20160237160A1 (Bayer, published 2016).

Experiment [1] concerns the target TPP-1988 (hTNFRSF12Aaa28-80-M50A-hIgG1-Fc) (human). Kind of experiment: ELISA, TWEAKR-Fc coated 62 ng/ml, biotin-IgG titrated; + means IC50 1 to 150 pM.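 Further: biotinylated IgG binding to immobilized TWEAKR-Fc muteins, detected with Streptavidin-HRP and Amplex Red, IC50 derived from fitted dose-response curves of twofold serial dilutions.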 On the technique in general: ELISA stands for enzyme-linked immunosorbent assay.
Procedure: To collect dose-response data, the different TWEAKR-Fc muteins were coated with a low concentration (62 ng/ml) in a 384-well Maxisorb ELISA plate and a serial 2fold dilution of biotinylated IgG starting with a concentration of 100 nM was used as soluble binding partner. Detection was done with Streptavidin-HRP and Amplex Red.
The dose-response data were fitted and IC50s determined.
For experiment [2], the target named is T1, TPP-2614 (TweakR-ECD-34-68-hIgGFc-His-D47A) (human).
T1 construct: also called D47A TWEAKR mutein
Kind of experiment: ELISA, PDL-192(TPP-1104) coated at 1 µg/ml, eight-fold diluted HEK293 supernatant with the TWEAKR(34-68)-Fc mutein, anti-HIS-HRP, Amplex Red.
Procedure: S37A, R38A, S40A, W42A, S43A, D45A, D47A, K48A, D51A, S54A, R56A, R58A, P59A, H60A, S61A, D62A, F63A and L65A muteins were expressed in HEK293 cells (black diamonds).
These TWEAKR(34-68)-Fc muteins were expressed in HEK293 cells. To collect dose-response data, IgGs were coated at a concentration of 1 μg/ml in a 384-well Maxisorp ELISA plate and a serial 2fold dilution of the TWEAKR mutein containing supernatant was used as soluble binding partner. Detection was done with anti-HIS-HRP and Amplex Red.

B1: PDL-192(TPP-1104) (antibody, human IgG1, kappa, V domains shown)
VH: QVELVESGGGLVQPGGSLRLSCAASGFTFSSYWMSWVRQAPGKGLEWVAEIRLKSDNYATHYAESVKGRFTISRDDSKNSLYLQMNSLRAEDTAVYYCTGYYADAMDYWGQGTLVTVSS
VL: DIQMTQSPSSLSASVGDRVTITCRASQSVSTSSYSYMHWYQQKPGKAPKLLIKYASNLESGVPSRFSGSGSGTDFTLTISSLQPEDFATYYCQHSWEIPYTFGGGTKVEIKR
notes: Human IgG1; variable domains from WO2009/020933 with constant region added
With B1, the binding result in experiment [1] and in experiment [2] was “binds” each time.
